The results in this text go back to publication doi:10.1101/2025.11.26.690747.

The target in assay [1] is His-tagged PvBDP1 ankyrin domain (fragment 1-220) (P. vivax). The experiment in a line: thermal shift assay.
In assay [2] the target is Strep-tagged ACDC domain of PvAP2-I (residues 30-180) (P. vivax). The experiment in a line: thermal shift assay.

As for “synthetic peptide corresponding to the α3 helix of ASAIR of PvAP2-I (residues 280-310)”, in assay [1], the Tm of the ankyrin domain with peptide at a 1:10 molar ratio (50.0°C alone) stood at 50.7 °C and the Tm of the ankyrin domain with peptide at a 1:40 molar ratio (50.0°C alone) came to 51.2 °C.
“synthetic peptide corresponding to PvBDP1 BAAS (residues 275-296)”: in assay [2], the Tm of the ACDC domain with peptide at a 1:10 molar ratio (61.1°C alone) stood at 60.1 °C and the Tm of the ACDC domain with peptide at a 1:40 molar ratio (61.1°C alone) came to 59.8 °C.
